B1: C925 (antibody, V domains shown)
VH: QVQLVESGGGVVQPGRSLRLSCAASGFTFSNYGLHWVRQAPGKGLEWVAVTSDDGNRKYYADSVKGRFTISRDDSKNTLYLQMNNLRTEDTAVYYCAKSWWLSENWFDPWGQGTLVTVSS
VL: EIVMTQSPATLSVSPGERATLSCRASQSVRSNLAWYQQRPGQAPRLLIYGAFTRATGIPARFSVSGSGTEFTLTIDSLQSEDFAVYYCQQYNNWPLTFGGGTKVEIK
B2: C926 (antibody, V domains shown)
VH: QVQLVESGGGVVQPGRSLRLSCAASGFGLITYSMHWVRQAPGKGLEWVGLISFDGNTTYYADSVRGRFTISRDNLANILYLQMNSLRPDDTALYYCARDKRGVIRGLLNFWGQGSLVTVSS
VL: DIVMTQSPDSLAVSLGERATINCKSSQSLLPSSNSNNYLAWYQQKSGQPPNLLIYWASTRESGVPDRFSGSGSETDFSLTISNLQAEDVAVYYCQQYYNTPHTFGGGTKVEI
B3: C927 (antibody, V domains shown)
VH: QVQLVESGGGVVQPGRSLRLSCVASGFTFSYFDMHWVRQAPGKGLEWVALISHDGSTTFYGDSARGRFTISRDNSRNTLDLQMNSLRPEDTAVYFCAKPVDAAMFDFWGQGTLVTVS
VL: SYELTQPPSVSVAPGKTARITCGGNNIGSKSVHWYQQRPGQAPVLVIYYDSDRPSGIPERFSGSNSGNTATLTISRVEAGDEADFYCQVWDRSTNHLVVFGGGTQLTVL
B4: C928 (antibody, V domains shown)
VH: QVQLVESGGGVVQPGRSLRLSCAASGFTFSFFDMHWVRQAPGKGLEWVADISYDGSNQYYGDSVKGRFTISRDNSKSTLYLQMNSLRAEDTAVYYCAKPVDTAMFDSWGQGTLVTVSS
VL: SYELTQPPSVSVAPGETARITCGGNNIGHKSVHWYQQQPGQAPVLVIYYDSERPSGIPERFSGSNSGNTATLTISRVEAGDEADYHCQVWDGGNDHLVIFGGGTKLTVL
B5: C929 (antibody, V domains shown)
VH: EVQLVESGGGLIQPGGSLRLSCAASGFTVSSNYMTWVRQAPGKGLEWVSVIYSGGTTYYADSVKGRFTISRDNSKNTLYLQMNSLRAEDTAVYYCARDLVVWGMDVWGQGTTVTVSS
VL: DIQLTQSPSFLSASVGDRVTITCRASQGISSYLAWYQQKPGKAPKLLIYAASTLQSGVPSRFSGSGSGTEFTLTISSLQPEDFATYYCQLLNSYPYTFGQGTKLEIK
B6: C930 (antibody, V domains shown)
VH: EVQLVESGGGLFQPGGSLRLACAASGITVSSNYMSWVRQPPGKGLEWVSVIYAGGSTFYADSVKGRLTISRDNSKNTLYLQINSLRAEDTAVYYCARDLVVWGMDVWGQGTTVTVSS
VL: DIQLTQSPSFLSASVGDRVTITCRASQGISSYLAWYQQKPGKAPKLLIYAASTLQSGVPSRFSGSGSGTEFTLTISSLQPEDFATYYCQQLNTYPYTFGQGTKLEIK
B7: C931 (antibody, V domains shown)
VH: QVQLVESGGGVVQPGRSLRLSCAASGFSFSTYGMHWVRQAPGKGLEWVAVISFDGSQKYYGDSVKGRFTISRDNPKNTLDLQMNSLRAEDTAVYYCAKVVVRGVIISLYYGMDVWGQGTTVTVSS
VL: not shown
B8: C932 (antibody, V domains shown)
VH: QVQLVESGGSVVQPGKSLRLSCAGSGFAFSTYGMHWVRQAPGKGLEWVAVISSDGGNKYYADSVKGRFTISRDNYENTLYLQMNSLGAEDTAVYYCAKVALRGVFISLYYGMDVWGQGTTVTVSS
VL: SYELTQPPSVSVTPGQTASITCSGDKLGDKYACWFLQKPGQSPLLVIYQDTKRPSGIPDRLSGSKSGNTATLTISGTQAMDEADYYCQTWDSSAVVFGGGTKLTV
B9: C934 (antibody, V domains shown)
VH: QVQLVQSGAEVKKPGASVKVSCKASGYTFTDYYIHWVRQAPGQGLEWMGWINPNSGGTNYAQKFQGRVTMTRDTSISTAYMDLSRLRSDDTAVYYCARDVIITMGRGVVFRMDVWGQGTTVTVSS
VL: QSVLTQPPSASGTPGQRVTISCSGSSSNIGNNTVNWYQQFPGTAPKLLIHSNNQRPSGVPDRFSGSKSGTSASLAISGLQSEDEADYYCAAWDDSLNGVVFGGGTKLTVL
B10: C935 (antibody, V domains shown)
VH: QVQLVESGGGVVQPGRSLRLSCAATGFTFSSYGMHWVRQAPGKGLEWVALIWYDGSNQYYVDSVKGRFTISRDNSKKTLYLQMNSLRVEDTAVYYCARDFSNSDMVTLSDAFDIWGQGTMVTVSS
VL: DIQLTQSPSFLSASVGDRVTIACRASQGISSYSSYLAWYQQKPGKAPKLLIYAASTLQSGVPSRFSGSGSGTEFTLTISSLQPEDFATYYCQQLNSYPLFTFGPGTKVDIK
B11: C936 (antibody, V domains shown)
VH: EVQLVESGGGLIQPGGSLRLSCAASGFTVSSNYMSWVRQAPGKGLEWVSVIYSGGSTFYADSVKGRFTISRDNSKNTLYLQMNSLRAEDTAVYYCARDLGTGLFDYWGQGTLVTVSS
VL: DIQLTQSPSFLSASVGDRVTITCRASQGISSYLAWYQQKPGKAPKLLIYAASTLQSGVPSRFSGSGSGTEFTLTISSLQPEDFATYYCQQLDSYPPGTFGPGTKVDIK
B12: C937 (antibody, V domains shown)
VH: EVQLVESGGGLIQPGGSLRLSCAASELTVSSNYMSWVRQAPGKGLEWVSVIYPGGSTFYADSVKGRFTISRDNSKNTLYLQMNSLRAEDTAVYYCARDLGTGLFDYWGQGTLVTVSS
VL: DIQLTQSPSFLSASVGDRVTITCRASQGISSYLAWYQQKPGKAPKLLIYAASTLQSGVPSRFSGSGSGTEFTLTISSLQPEDFATYFCQLLNSNPPGTFGPGTKVDIK
B13: C938 (antibody, V domains shown)
VH: QVQLVESGGGVVQPGRSLRLSCAASGFTFRSHAMHWVRQAPGKGLEWVAIISSDGFNKYYADSVKGRFTISRDNSKNTLYVHMNSLRVEDTAIYYCASGLLWFETREISGAPDYGMAVWGQGATVTVSS
VL: DIQMTQSPSSLSASVGDRVTITCRASQNISNFLNWYQQKPGKAPKLLIYAASSLQSGVPSRYSGSGSGTDFTLTISSLQAEDFATYYCQQSYSTPLTFGGGTKVEIK
B14: C939 (antibody, V domains shown)
VH: QVQLVESGGGVVQPGRSLRLSCAASGFTFSSYAMHWVRQAPGKGLESVALISHDGSNKYHADSVKGRLTISRDTSKNTLYLQMDSLRPEDTAVYYCASGLLWFETAGGSGAPDYGMAVWGQGTTVTVSS
VL: DIQMTQSPSSLSASVGDRVTITCRASQSISTYLNWYQQKPGRAPKFLIYAASSLQSGVPSRFSGSGSGTDFTLIISGLQPEDFATYFCQQSYNTPLTFGGGTKVEIK
B15: C940 (antibody, V domains shown)
VH: QVQLQESGSGLVKPSQTLSLTCAVSGGSASSGGYSWSWIRQPPGKGLEWIGYIYHSGSTYYNPSLKSRVTISLDRTKKQFSLKLSSVTAADTAVYYCARFCLSGSHYLFAFDIWGPGTMVTVSS
VL: QSALTQPASVSGSPGQSITISCTATSSDVGGYNFVSWYQQYPGKVPKLLIYDVGNRPSGVSNRFSGSKSGNTASLTISGLQAEDEADYYCSSYTNSSTFFGGGTKLTVL
B16: C941 (antibody, V domains shown)
VH: QVQLVQSGAEVKKPGSSVKVSCKASGGTSRSYPISWVRQAPGQGLEWMGRIIPIVGTANYAQRFQGRVTITADESTGTAYMELSSLRSEDTAVYYCARNRGYSDYGSVYYFDYWGQGTLVTVSS
VL: QSVLTQPPSVSGAPGQRVTISCTGSSSNIGAGYDVHWYQQLPGAAPKLLIYRNINRPSGVPDRFSGSKSGTSASLAITGLQADDEADYYCQSYDSSLSGSVFGGGTKLTV
B17: C942 (antibody, V domains shown)
VH: QVQLVESGGGVVQPGRSLRLSCAASGFTFSSYVMHWVRQAPGKGLEWVAIISSDGNTKYYADSVKGRFTISRDNSKNTLYLQMNSVRTDDTAVYYCARDGTTMTPTDLLTDWGQGTLVTVSS
VL: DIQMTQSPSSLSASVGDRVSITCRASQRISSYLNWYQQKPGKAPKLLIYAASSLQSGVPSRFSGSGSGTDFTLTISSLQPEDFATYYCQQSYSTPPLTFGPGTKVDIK
B18: C943 (antibody, V domains shown)
VH: QVQLVESGGGVVQPGRSLRLSCAASGFPFSSFGMHWVRQAPGRGLEWVALILYDGDNKYYADSVKGRFTISRDNSKNTLYLQMNSLRAEDTAVYYCAKDIGGGSSPPFFDYWGQGTLVTVSS
VL: SYELTQAPSVSLAPGKTARITCGENNIGSKSVHWYQQKPGQAPVLVIYYDSDRPSGIPERFSGSNSGNTATLTISRVEAGDEADYYCQVWDSSSDHVMFGGGTKLTVL
B19: C944 (antibody, V domains shown)
VH: QVQLVESGGGVVQPGRSLRLSCAASGFTFSSYGMHWVRQAPGKGLEWVAVISYDGSYKYYADSVKGRFTISRDNSKNTLYLQMNSLRAEDTAVYYCAKGSGSQLYYYYGMDVWGQGTTVTVSS
VL: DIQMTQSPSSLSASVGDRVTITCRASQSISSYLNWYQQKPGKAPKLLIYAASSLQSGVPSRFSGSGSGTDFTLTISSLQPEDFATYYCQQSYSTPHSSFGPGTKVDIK
B20: C945 (antibody, V domains shown)
VH: QVQLVQSGAEVKKPGASVRISCKASGYTFTNYYMHWVRQAPGQGLEWMGIINPSGGSTTYAPKFQARVTMTRDTSTSTVYMELSSLRSDDTAVYYCARDYVLVPARSGMDVWGQGTTVTVS
VL: EIVLTQSPATLSLSPGERATLSCRASQSVSSYLAWYQQKPGQAPRLLIYDASNRATGIPARFSGSGSGTDFTLTISSLEPEDFAIYYCQQRSNWPYTFGQGTKLEIK
B21: C1041 (antibody, V domains shown)
VH: QVQLVQSGAEVKKPGASVKVSCKASGYTFSDHYIYWVRQAPGQGLEWMGIINPSAGSTSYAQKFQGRVTMTRDTSTSTVYMELSSLRSEDTAVYYCARDIVFVPATMAMDVWGLGTTVTVSS
VL: EIVLTQSPATLSLSPGERATLSCRASQSVSRYLAWYQQKPGQAPRLLIYDASNRATGIPARFSGSGSGTDFTLTISSLEPEDFAVYYCQQRSNWLFTFGPGTKVDIK
B22: C946 (antibody, V domains shown)
VH: QVQLVQSGAEVKKPGASVKVSCKASGYTFTNYYIHWVRQAPGQGLEWMGIINPDGDSTSYVQKFQGRVTMTRDTSTSTVYMELSSLRSEDTAVYYCARDLVFVPATSAMDVWGKGTTVTVSS
VL: EIVLTQSPATLSLSPGERATLSCRASQSVSSYLAWYQQKPGQAPRLLIYDASNRATGIPARFSGSGSGTDFTLTISSLEPEDFAVYYCQQRSNWLFTFGPGTKVDIK
B23: C1042 (antibody, V domains shown)
VH: QVQLVQSGAEVKKPGASVKVSCKASGYTFSDHYIYWVRQAPGQGLEWMGIINPSGGSTSYAQKFQGRVTMTRDTSTSTVYMELSSLKSEDTAVYYCSRDIVFVPATMAMDVWGQGTTVTVSS
VL: EIVLTQSPATLSLSPGERATLSCRASQSVSRYLAWYQQKPGQAPRLLIYDASNRATGIPARFSGSGSGTDFTLTISSLEPEDFAVYYCQQRSNWLFTFGPGTKVDIK

These binders were tested against T1, SARS-COV-2 RBD (SARS-COV-2, UniProt P0DTC2 319-539) (assay: ELISA, RBD coated on plate).
T1 construct: also called WT RBD

First: B1
Second: B2
The EC50 of the first is 2.1-fold lower: 2.26 ng/mL for the first, 4.72 ng/mL for the second.

B3 and B4 are within 1.5-fold of each other in EC50: 3.77 ng/mL for the first, 4.14 ng/mL for the second.

Going from B5 to B6, the EC50 falls from 2.07 ng/mL to 1.24 ng/mL (1.7-fold).

B7 and B8 are within 1.5-fold of each other in EC50: 2.57 ng/mL for the first, 3.57 ng/mL for the second.

Compared with B9, B10 is 3-fold higher in EC50: 0.95 ng/mL for the first, 2.86 ng/mL for the second.

First: B11
Second: B12
The EC50 of the first is 1.6-fold higher: 1.56 ng/mL for the first, 0.97 ng/mL for the second.

B13 and B14 are within 1.5-fold of each other in EC50: 2.63 ng/mL for the first, 3.62 ng/mL for the second.

Compared with B15, B16 is 2-fold lower in EC50: 1.8 ng/mL for the first, 0.88 ng/mL for the second.

Going from B17 to B18, the EC50 rises from 1.35 ng/mL to 2.59 ng/mL (1.9-fold).

Compared with B19, B20 is 1.8-fold higher in EC50: 1.71 ng/mL for the first, 3.13 ng/mL for the second.

B21 and B22 are within 1.5-fold of each other in EC50: 3.65 ng/mL for the first, 3.82 ng/mL for the second.

For B23, the EC50 was 4.55 ng/mL.

Source: patent publication US20240218057A1 (ROCKEFELLER UNIVERSITY, published 2024)
